Changes are numbered by the printed parent chain. Numbers in names are those of the source.
B1: TetRrev4/6-10: revTetR(BD) A56S V99E (protein)
chain: MSRLDKSKVINSALELLNEVGIEGLTTRKLAQKLGVEQPTLYWHVKNKRALLDALSVEILARHHDYSLPAAGESWQSFLRNNAMSFRRALLRYRDGAKEHLGTRPDEKQYDTVETQLRFMTENGFSLRDGLYAISAVSHFTLGAVLEQQEHTAALTDRPAAPDENLPPLLREALQIMDSDDGEQAFLHGLESLIRGFEVQLTALLQIV
modifications: Modified tetracycline repressor
notes: revTetR(BD) A56S V99E
B2: TetRrev4/6-15: revTetR(BD) A56S I59A L60W V99V (protein)
chain: B1 chain with I59A, L60W, E99V
modifications: Modified tetracycline repressor
notes: revTetR(BD) A56S I59A L60W V99V
B3: TetRrev4/6-17: revTetR(BD) G99R V99L L101I (protein)
chain: B1 chain with S56A, G96R, E99L, L101I
modifications: Modified tetracycline repressor
notes: revTetR(BD) G99R V99L L101I
B4: TetRrev4/6-24: revTetR(BD) A61T V99R (protein)
chain: B1 chain with S56A, A61T, E99R
modifications: Modified tetracycline repressor
notes: revTetR(BD) A61T V99R
B5: TetRrev4/6-25: revTetR(BD) I59S L60L R62G D95A V99L (protein)
chain: B1 chain with S56A, I59S, R62G, D95A, E99L
modifications: Modified tetracycline repressor
notes: revTetR(BD) I59S L60L R62G D95A V99L
B6: TetRrev4/6-27: revTetR(BD) V99R (protein)
chain: B1 chain with S56A, E99R
modifications: Modified tetracycline repressor
notes: revTetR(BD) V99R
B7: TetRrev1/34: revTetR(BD) L17S E23K (protein)
chain: B1 chain with L17S, E23K, S56A, E99V
modifications: Modified tetracycline repressor
notes: revTetR(BD) L17S E23K
B8: TetRrev3/38: revTetR(BD) L17H I22F E23G (protein)
chain: B1 chain with L17H, I22F, E23G, S56A, E99V
modifications: Modified tetracycline repressor
notes: revTetR(BD) L17H I22F E23G
B9: TetRrev19/48: revTetR(BD) N18K E19D V20L I22N E23A (protein)
chain: B1 chain with N18K, E19D, V20L, I22N, E23A, S56A, E99V
modifications: Modified tetracycline repressor
notes: revTetR(BD) N18K E19D V20L I22N E23A
B10: TetRrev22/5: revTetR(BD) E15V L17A E19D (protein)
chain: B1 chain with E15V, L17A, E19D, S56A, E99V
modifications: Modified tetracycline repressor
notes: revTetR(BD) E15V L17A E19D
B11: TetRrev25/43: revTetR(BD) L17F E19- G24G (protein)
chain: MSRLDKSKVINSALELFNVGIEGLTTRKLAQKLGVEQPTLYWHVKNKRALLDALAVEILARHHDYSLPAAGESWQSFLRNNAMSFRRALLRYRDGAKVHLGTRPDEKQYDTVETQLRFMTENGFSLRDGLYAISAVSHFTLGAVLEQQEHTAALTDRPAAPDENLPPLLREALQIMDSDDGEQAFLHGLESLIRGFEVQLTALLQIV
modifications: Modified tetracycline repressor
notes: revTetR(BD) L17F E19- G24G
B12: TetRrev28/8: revTetR(BD) L14S N18Y I22F L25L (protein)
chain: B1 chain with L14S, N18Y, I22F, S56A, E99V
modifications: Modified tetracycline repressor
notes: revTetR(BD) L14S N18Y I22F L25L
B13: TetRrev28/16: revTetR(BD) L14L E15A L17G L25V (protein)
chain: B1 chain with E15A, L17G, L25V, S56A, E99V
modifications: Modified tetracycline repressor
notes: revTetR(BD) L14L E15A L17G L25V
B14: TetRrev28/23: revTetR(BD) A13A L14S N18K E23V (protein)
chain: B1 chain with L14S, N18K, E23V, S56A, E99V
modifications: Modified tetracycline repressor
notes: revTetR(BD) A13A L14S N18K E23V
B15: TetRrev28/26: revTetR(BD) L14T N18Y G21G I22F (protein)
chain: B1 chain with L14T, N18Y, I22F, S56A, E99V
modifications: Modified tetracycline repressor
notes: revTetR(BD) L14T N18Y G21G I22F
B16: TetRrev28/27: revTetR(BD) L17G I22M (protein)
chain: B1 chain with L17G, I22M, S56A, E99V
modifications: Modified tetracycline repressor
notes: revTetR(BD) L17G I22M
B17: TetRrev28/30: revTetR(BD) V20G G21A I22I E23G (protein)
chain: B1 chain with V20G, G21A, E23G, S56A, E99V
modifications: Modified tetracycline repressor
notes: revTetR(BD) V20G G21A I22I E23G
B18: TetRrev28/31: revTetR(BD) A13A V20G G21R I22N G24G (protein)
chain: B1 chain with V20G, G21R, I22N, S56A, E99V
modifications: Modified tetracycline repressor
notes: revTetR(BD) A13A V20G G21R I22N G24G
B19: TetRrev28/36: revTetR(BD) N18I E19G V20G E23V (protein)
chain: B1 chain with N18I, E19G, V20G, E23V, S56A, E99V
modifications: Modified tetracycline repressor
notes: revTetR(BD) N18I E19G V20G E23V
B20: TetRrev28/40: revTetR(BD) L14S N18Y I22F L25L (protein)
chain: B1 chain with L14S, N18Y, I22F, S56A, E99V
modifications: Modified tetracycline repressor
notes: as for B12
B21: TetRrev28/41: revTetR(BD) L17L N18D V20R I22N (protein)
chain: B1 chain with N18D, V20R, I22N, S56A, E99V
modifications: Modified tetracycline repressor
notes: revTetR(BD) L17L N18D V20R I22N
B22: TetRrev28/46: revTetR(BD) A13A V20G G21R I22N G24G (protein)
chain: B1 chain with V20G, G21R, I22N, S56A, E99V
modifications: Modified tetracycline repressor
notes: as for B18
B23: TetRrev28/48: revTetR(BD) N18Y V20D I22T W43S (protein)
chain: B1 chain with N18Y, V20D, I22T, W43S, S56A, E99V
modifications: Modified tetracycline repressor
notes: revTetR(BD) N18Y V20D I22T W43S
B24: TetRrev28/49: revTetR(BD) N18Y V20D I22T (protein)
chain: B1 chain with N18Y, E19D, I22T, S56A, E99V
modifications: Modified tetracycline repressor
notes: revTetR(BD) N18Y V20D I22T
B25: TetRrev29/9: revTetR(BD) L17V N18Y G21G I22T (protein)
chain: B1 chain with L17V, N18Y, I22T, S56A, E99V
modifications: Modified tetracycline repressor
notes: revTetR(BD) L17V N18Y G21G I22T
B26: TetRrev29/17: revTetR(BD) L17S E23D (protein)
chain: B1 chain with L17S, E23D, S56A, E99V
modifications: Modified tetracycline repressor
notes: revTetR(BD) L17S E23D
B27: TetRrev29/24: revTetR(BD) E15V L17F N18Y I22M E23K (protein)
chain: B1 chain with E15V, L17F, N18Y, I22M, E23K, S56A, E99V
modifications: Modified tetracycline repressor
notes: revTetR(BD) E15V L17F N18Y I22M E23K

What follows are molecules tested on tet operator sequence (assay: β-galactosidase activity of a tetracycline-regulated promoter in transformed E. coli with revTetR, in the presence and absence of anhydrotetracycline (atc)). Settings: RevTetR isolate cultured in the absence of anhydrotetracycline (ATC).
Format: cell-based, Escherichia coli
Method in brief: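 TetR(BD) chimera mutants (TetR(B) residues 1–50, TetR(D) 51–208) expressed in E. coli regulating a tet operator-controlled lacZ. β-Galactosidase measured in Miller units at 28 °C and 37 °C with and without anhydrotetracycline; reported as percent of maximal expression without Tet repressor.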

Going from B1 to B2, the “β-Galactosidase Activity, Cultured Without ATC” value falls from 97.964 to 66.054.

First: B3
Second: B4
The “β-Galactosidase Activity, Cultured Without ATC” value of the first is lower: 54.403 for the first, 95.596 for the second.

Compared with B5, B6 is higher in “β-Galactosidase Activity, Cultured Without ATC” value: 102.926 for the first, 108 for the second.

Going from B7 to B8, the “β-Galactosidase Activity, Cultured Without ATC” value rises from 79.3141 to 97.043.

Compared with B9, B10 is higher in “β-Galactosidase Activity, Cultured Without ATC” value: 79.9581 for the first, 92.312 for the second.

First: B11
Second: B12
The “β-Galactosidase Activity, Cultured Without ATC” value of the first is higher: 99.1241 for the first, 98.6289 for the second.

First: B13
Second: B14
The “β-Galactosidase Activity, Cultured Without ATC” value of the first is higher: 96.3269 for the first, 92.2055 for the second.

Compared with B15, B16 is higher in “β-Galactosidase Activity, Cultured Without ATC” value: 89.3918 for the first, 95.0152 for the second.

Compared with B17, B18 is higher in “β-Galactosidase Activity, Cultured Without ATC” value: 55.1783 for the first, 99.8749 for the second.

Compared with B19, B21 is lower in “β-Galactosidase Activity, Cultured Without ATC” value: 65.5335 for the first, 15.4643 for the second.

Going from B22 to B23, the “β-Galactosidase Activity, Cultured Without ATC” value rises from 95.9627 to 99.3107.

Compared with B24, B25 is higher in “β-Galactosidase Activity, Cultured Without ATC” value: 62.5137 for the first, 74.4357 for the second.

Compared with B26, B27 is higher in “β-Galactosidase Activity, Cultured Without ATC” value: 44.6409 for the first, 85.5708 for the second.

With B20 the “β-Galactosidase Activity, Cultured Without ATC” value was 91 .691.

Same assay, conditions: RevTetR isolate cultured in the presence of anhydrotetracycline (ATC)

Going from B1 to B2, the “β-Galactosidase Activity, Cultured With ATC” value rises from 6.149 to 7.647.

First: B3
Second: B4
The “β-Galactosidase Activity, Cultured With ATC” value of the first is higher: 2.601 for the first, 2.428 for the second.

First: B5
Second: B6
The “β-Galactosidase Activity, Cultured With ATC” value of the first is lower: 3.433 for the first, 49 for the second.

First: B7
Second: B8
The “β-Galactosidase Activity, Cultured With ATC” value of the first is lower: 0.9226 for the first, 1.8287 for the second.

Compared with B9, B10 is lower in “β-Galactosidase Activity, Cultured With ATC” value: 1.1143 for the first, 0.9755 for the second.

Compared with B11, B12 is higher in “β-Galactosidase Activity, Cultured With ATC” value: 1.7535 for the first, 4.4123 for the second.

Compared with B13, B14 is higher in “β-Galactosidase Activity, Cultured With ATC” value: 0.9453 for the first, 2.9867 for the second.

First: B15
Second: B16
The “β-Galactosidase Activity, Cultured With ATC” value of the first is higher: 3.8006 for the first, 1.6907 for the second.

Compared with B17, B18 is lower in “β-Galactosidase Activity, Cultured With ATC” value: 3.7384 for the first, 1.1121 for the second.

First: B19
Second: B20
The “β-Galactosidase Activity, Cultured With ATC” value of the first is lower: 1.0579 for the first, 3.4834 for the second.

Going from B21 to B22, the “β-Galactosidase Activity, Cultured With ATC” value falls from 5.6333 to 1.1482.

Compared with B23, B24 is higher in “β-Galactosidase Activity, Cultured With ATC” value: 1.1587 for the first, 8.2716 for the second.

Compared with B25, B26 is lower in “β-Galactosidase Activity, Cultured With ATC” value: 11.772 for the first, 1.7738 for the second.

For B27, the “β-Galactosidase Activity, Cultured With ATC” value was 7.9819.

— patent US20030186281A1, “Modified tetracycline repressor protein compositions and methods of use” (priority 2001, published 2003)
